Source: patent US8026218
Bridge positions count the residues as written; N and C are the ends. Square brackets hold non-standard residues; d marks the D form. Primed or numbered codes have the meaning given here. Ends that are not written are not given here. * marks the point of attachment. NMeBn(CF3)2 = C-terminal N-methyl bis(trifluoromethyl)benzyl amide; O‑Bzl(CF3)2 = C-terminal bis(trifluoromethyl)benzyl ester; Glc = O-glucosyl on Ser side chain (Ser(OGlu)/Ser(OGlc)); NH(3,5-(CF3)2-benzyl) = FC(F)(F)c1cc(CN*)cc(C(F)(F)F)c1; OBzl(3,5-(CF3)2) = FC(F)(F)c1cc(CO*)cc(C(F)(F)F)c1; Glc″ = glucosyl on the serine side-chain oxygen; O‑Bzl(CF3)2(3) = C-terminal O-Bzl(CF3)2 ester; NH‑Bn(CF3)2 = C-terminal Bn(CF3)2 amide; Dmt = Cc1cc(O)cc(C)c1C[C@H](N)C(=O)O; Met(O) = CS(=O)CC[C@H](N)C(=O)O; dPen = CC(C)(S)[C@@H](N)C(=O)O; NMe(benzyl) = CN(Cc1ccccc1)*; Pen = CC(C)(S)[C@H](N)C(=O)O; Nle = CCCC[C@H](N)C(=O)O; Aib = CC(C)(N)C(=O)O; NHBn = c1ccc(CN*)cc1; OBn = c1ccc(CO*)cc1; GABA = NCCCC(=O)O

Assays:
[1] = molecular target: guinea pig NK1 receptor (guinea pig) (UniProt P30547); test: cell-based or functional assay
[2] = molecular target: δ opioid receptor of the mouse isolated vas deferens (mouse) (UniProt P32300); test: cell-based or functional assay
[3] = molecular target: δ opioid receptor of the mouse isolated vas deferens (mouse), P32300; test: cell-based or functional assay
[4] = molecular target: µ opioid receptor of the guinea pig isolated ileum (guinea pig) (UniProt P97266); test: cell-based or functional assay
[5] = molecular target: human δ opioid receptor (human) (UniProt P41143); test: competition vs [3H]DPDPE, hDOR cell membranes
[6] = molecular target: rat µ opioid receptor (rat) (UniProt P33535); test: competition vs [3H]DAMGO, rMOR cell membranes
[7] = molecular target: rat µ opioid receptor (rat) (UniProt P33535); test: cell-based or functional assay
rat NK1 receptor (rat) = rat NK1 receptor (rat) (UniProt P14600); test: competition vs [3H]Substance P, rNK1 CHO cell membranes
[8] = molecular target: human NK1 receptor (human) (UniProt P25103); test: competition vs [3H]Substance P, hNK1 CHO cell membranes
Sequence of human NK1 receptor (human) (P25103 whole entry): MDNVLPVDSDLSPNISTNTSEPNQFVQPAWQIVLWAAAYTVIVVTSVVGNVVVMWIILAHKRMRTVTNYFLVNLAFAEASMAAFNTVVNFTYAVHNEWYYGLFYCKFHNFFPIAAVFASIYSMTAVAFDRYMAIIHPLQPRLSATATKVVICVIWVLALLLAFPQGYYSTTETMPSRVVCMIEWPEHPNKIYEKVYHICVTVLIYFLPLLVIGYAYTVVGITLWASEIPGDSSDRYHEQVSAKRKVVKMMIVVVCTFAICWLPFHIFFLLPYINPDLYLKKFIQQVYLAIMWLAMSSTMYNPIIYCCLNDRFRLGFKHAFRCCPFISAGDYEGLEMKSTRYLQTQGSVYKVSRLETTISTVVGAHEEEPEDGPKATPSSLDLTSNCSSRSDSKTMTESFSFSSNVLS

Sequence of rat µ opioid receptor (rat) (P33535 whole entry): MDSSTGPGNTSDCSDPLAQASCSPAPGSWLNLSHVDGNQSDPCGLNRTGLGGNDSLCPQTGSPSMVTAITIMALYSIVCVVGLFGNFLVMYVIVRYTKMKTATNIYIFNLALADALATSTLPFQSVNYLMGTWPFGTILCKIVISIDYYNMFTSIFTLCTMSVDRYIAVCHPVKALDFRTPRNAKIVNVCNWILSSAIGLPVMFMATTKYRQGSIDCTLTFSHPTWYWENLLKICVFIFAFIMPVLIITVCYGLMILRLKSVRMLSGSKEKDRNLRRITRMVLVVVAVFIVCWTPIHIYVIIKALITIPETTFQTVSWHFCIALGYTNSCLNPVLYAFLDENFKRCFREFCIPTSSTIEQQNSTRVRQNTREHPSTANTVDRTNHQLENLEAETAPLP
Sequence of δ opioid receptor of the mouse isolated vas deferens (mouse) (P32300 whole entry, stated change not applied): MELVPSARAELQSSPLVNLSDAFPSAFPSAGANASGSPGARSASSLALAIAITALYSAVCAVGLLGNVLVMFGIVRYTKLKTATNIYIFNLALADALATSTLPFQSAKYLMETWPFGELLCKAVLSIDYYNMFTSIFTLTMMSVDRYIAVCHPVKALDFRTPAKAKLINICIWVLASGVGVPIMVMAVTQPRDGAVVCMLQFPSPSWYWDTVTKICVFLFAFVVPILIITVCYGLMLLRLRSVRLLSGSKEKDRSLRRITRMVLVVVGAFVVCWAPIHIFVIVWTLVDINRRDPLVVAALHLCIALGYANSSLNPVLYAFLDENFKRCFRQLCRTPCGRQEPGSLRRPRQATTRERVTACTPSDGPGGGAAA
Sequence of δ opioid receptor of the mouse isolated vas deferens (mouse), P32300 (P32300 whole entry, stated change not applied): as above
Sequence of guinea pig NK1 receptor (guinea pig) (P30547 whole entry): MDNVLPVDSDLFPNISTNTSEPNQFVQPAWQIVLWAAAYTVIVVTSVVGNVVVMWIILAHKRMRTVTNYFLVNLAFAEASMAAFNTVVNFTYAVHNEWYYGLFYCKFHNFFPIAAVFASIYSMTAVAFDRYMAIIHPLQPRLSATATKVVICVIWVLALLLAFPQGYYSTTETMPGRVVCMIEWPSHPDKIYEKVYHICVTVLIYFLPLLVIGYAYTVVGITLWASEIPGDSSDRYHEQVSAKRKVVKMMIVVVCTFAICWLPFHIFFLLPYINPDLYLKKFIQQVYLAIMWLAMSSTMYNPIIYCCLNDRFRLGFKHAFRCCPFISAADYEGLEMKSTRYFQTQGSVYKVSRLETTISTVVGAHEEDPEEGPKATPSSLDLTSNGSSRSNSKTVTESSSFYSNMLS
Sequence of µ opioid receptor of the guinea pig isolated ileum (guinea pig) (P97266 whole entry): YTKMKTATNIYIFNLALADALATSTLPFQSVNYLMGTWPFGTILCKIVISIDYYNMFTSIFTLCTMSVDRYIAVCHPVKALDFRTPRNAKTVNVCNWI
Sequence of rat NK1 receptor (rat) (P14600 whole entry): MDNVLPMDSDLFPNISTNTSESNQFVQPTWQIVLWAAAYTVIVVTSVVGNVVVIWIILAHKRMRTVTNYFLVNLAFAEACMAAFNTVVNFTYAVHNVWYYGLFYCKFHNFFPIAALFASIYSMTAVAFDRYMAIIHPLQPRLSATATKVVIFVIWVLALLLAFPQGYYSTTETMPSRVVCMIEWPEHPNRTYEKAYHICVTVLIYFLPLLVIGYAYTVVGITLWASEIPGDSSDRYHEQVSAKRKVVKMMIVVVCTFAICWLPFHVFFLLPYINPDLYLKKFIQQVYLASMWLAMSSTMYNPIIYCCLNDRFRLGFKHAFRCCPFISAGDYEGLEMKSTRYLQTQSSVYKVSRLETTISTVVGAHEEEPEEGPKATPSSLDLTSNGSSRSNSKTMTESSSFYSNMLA
Sequence of human δ opioid receptor (human) (P41143 whole entry, stated change not applied): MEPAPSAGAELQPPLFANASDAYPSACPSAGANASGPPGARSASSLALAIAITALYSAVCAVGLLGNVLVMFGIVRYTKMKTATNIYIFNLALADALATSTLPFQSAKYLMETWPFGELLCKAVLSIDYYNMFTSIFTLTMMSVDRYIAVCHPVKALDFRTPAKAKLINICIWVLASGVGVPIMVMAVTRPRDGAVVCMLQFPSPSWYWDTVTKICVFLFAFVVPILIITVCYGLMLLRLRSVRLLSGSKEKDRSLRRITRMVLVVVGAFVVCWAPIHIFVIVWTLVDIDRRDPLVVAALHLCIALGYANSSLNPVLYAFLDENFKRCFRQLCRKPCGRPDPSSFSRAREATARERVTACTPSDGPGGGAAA

## Y[dA]GFW-{OBzl(3,5-(CF3)2)} [Tyr-D-Ala-Gly-Phe-Trp-O-3′,5′(CF3)2-Bzl (NP36)]
[1]
  GPI SP-antagonist Ke: 38 nM
[2]
  MVD δ-agonist IC50: 43.1 nM

## Y[dA]GF[Nle]PLS(Glc)W-{NH‑Bn(CF3)2} [TyrDAlaGlyPheNleProLeuSer(OGlu)TrpNHBn(CF3)2 (TY055)]
[3]
  MVD opioid(delta) agonist IC50: 17.4 nM

## Y[dA]GF[GABA]W-{O‑Bzl(CF3)2(3)} [Tyr-DAla-Gly-Phe-γ-Abu-Trp-O-Bzl(CF3)2 (NP34)]
[1]
  GPI/LMMP SP antagonist Ke: 0.96 nM
[2]
  MVD δ-agonist IC50: 67.9 nM
[4]
  GPI/LMMP µ-agonist IC50: 200 nM

B1: TyrDAlaGlyPheSer(OGlu)ProLeuTrpNHBn(CF3)2 (TY042) (peptide)
peptide: Y[dA]GFSPLW-{NH(3,5-(CF3)2-benzyl)}
modifications: not fully specified (residue 5); printed as TyrDAlaGlyPheSer(OGlu)ProLeuTrpNHBn(CF3)2
[3]
  MVD opioid(delta) agonist IC50: 109 nM

## Y[dA]GFMPLW-{NMeBn(CF3)2} [TyrDAlaGlyPheMetProLeuTrpNMeBn(CF3)2 (TY028)]
[3]
  MVD opioid(delta) agonist IC50: 11.2 nM

## Y[dA]GFMPLW-OBn [TyrDAlaGlyPheMetProLeuTrpOBn (TY029)]
[3]
  MVD opioid(delta) agonist IC50: 7.62 nM

## H-Y[dA]GF[Met(O)]PLW-{OBzl(3,5-(CF3)2)} (also: TFA salt) [H-Tyr-D-Ala-Gly-Phe-Met(O)-Pro-Leu-Trp-O-3,5-Bzl(CF3)2]
[3]
  MVD (δ) opioid agonist IC50: 33 nM

## Y[dC]GFMPLW-{OBzl(3,5-(CF3)2)} [TyrDCysGlyPheMetProLeuTrpOBn(CF3)2 (TY031)]
[3]
  MVD opioid(delta) agonist IC50: 235 nM

## Y[dC]GF[dC]PLW-{NH(3,5-(CF3)2-benzyl)} (disulfide 2-5) [Tyr[DCysGlyPheDCys]ProLeuTrpNHBn(CF3)2 (TY037)]
[3]
  MVD opioid(delta) agonist IC50: 8.28 nM

## Y[dA]GFMPLW-{NMe(benzyl)} [TyrDAlaGlyPheMetProLeuTrpNMeBn (TY026)]
[3]
  MVD opioid(delta) agonist IC50: 7.89 nM

## H-Y[dA]GF[dF]PLW-{OBzl(3,5-(CF3)2)} (also: TFA salt) [H-Tyr-D-Ala-Gly-Phe-D-Phe-Pro-Leu-Trp-O-3,5-Bzl(CF3)2]
[3]
  MVD (δ) opioid agonist IC50: 412 nM

B2: H-Tyr-D-Ala-Gly-Phe-Nle-Pro-Leu-Trp-O-3,5-Bzl(CF3)2 (peptide)
peptide: YAGFXPLW
modifications: here or on the partner: D-Ala at 2; Nle (norleucine, written X) at 5; C-terminal 3,5-bis(trifluoromethyl)benzyl ester
[3]
  MVD (δ) opioid agonist IC50: 16.8 nM

## Y[dA]GF[Nle]S(Glc″)LW-{NH‑Bn(CF3)2} [TyrDAlaGlyPheNleSer(OGlu)LeuTrpNHBn(CF3)2 (TY044)]
[3]
  MVD opioid(delta) agonist IC50: 18 nM

## Y[dA]GFMW-{O‑Bzl(CF3)2} [Tyr-DAla-Gly-Phe-Met-Trp-O-Bzl(CF3)2 (NP38)]
[1]
  GPI/LMMP SP antagonist Ke: 2 nM
[2]
  MVD δ-agonist IC50: 9.07 nM

## Y[dPen]GF[Nle]P[Pen]W-{NH(3,5-(CF3)2-benzyl)} (disulfide 2-7) [Tyr[DPenGlyPheNleProPen]TrpNHBn(CF3)2]
[5]
  Ki: 152 nM
[6]
  Ki: 1970 nM
[7]
  GTP binding EC50: 2910 nM
  GTP binding Emax: 15%
Rat NK1 receptor (rat)
  Ki: 163 nM
[8]
  Ki: 59 nM

## H-Y[dA]GFMPLW-{OBzl(3,5-(CF3)2)} (also: TFA salt) [H-Tyr-D-Ala-Gly-Phe-Met-Pro-Leu-Trp-O-3,5-Bzl(CF3)2]
[3]
  MVD (δ) opioid agonist IC50: 22.3 nM

## H-Y[dA]GFGPLW-{OBzl(3,5-(CF3)2)} (also: TFA salt) [H-Tyr-D-Ala-Gly-Phe-Gly-Pro-Leu-Trp-O-3,5-Bzl(CF3)2]
[3]
  MVD (δ) opioid agonist IC50: 172 nM

## [Dmt][dA]GFMPLW-NHBn [DmtDAlaGlyPheMetProLeuTrpNHBn (TY034)]
[3]
  MVD opioid(delta) agonist IC50: 6.85 nM

## Y[dA]GFAW-{O‑Bzl(CF3)2(3)} [Tyr-DAla-Gly-Phe-Ala-Trp-O-Bzl(CF3)2 (NP31)]
[1]
  GPI/LMMP SP antagonist Ke: 18.6 nM
[2]
  MVD δ-agonist IC50: 6.4 nM
[4]
  GPI/LMMP µ-agonist IC50: 401 nM

B3: TyrDAlaGlyPheNleProLeuTrpOBn(CF3)2 (TY018) (peptide)
peptide: YAGFXPLW
modifications: here or on the partner: D-Ala at 2; Nle (norleucine) at 5 (X); C-terminal O-3,5-Bn(CF3)2 ester
[3]
  MVD opioid(delta) agonist IC50: 16.8 nM

## Y[dA]GF[Aib]W-{O‑Bzl(CF3)2(3)} [Tyr-DAla-Gly-Phe-Aib-Trp-O-Bzl(CF3)2 (NP41)]
[2]
  MVD δ-agonist IC50: 36.2 nM

## Y[dPen]GF[Nle]P[dPen]W-{NH(3,5-(CF3)2-benzyl)} (disulfide 2-7) [Tyr[DPenGlyPheNleProDPen]TrpNHBn(CF3)2]
Rat NK1 receptor (rat)
  Ki: 26 nM
[8]
  Ki: 1.9 nM
